Entries after “also recorded” stand apart in the source; their conditions may differ.
Test system: PPARγ2
Assay: GST / His pull-down and immunoprecipitation of sLZIP with PPARγ2
Type: binding
Description: 293T cells were obtained and washed with cold PBS. The cells were re-suspended in an IP lysis buffer [25 mM of Tris-HCl (pH 7.4), 150 mM of NaCl, 1 mM of EDTA, 1% NP-40 and 5% glycerol, and a protease inhibitor]. A suspension was centrifuged at 16,000×g for 20 minutes at 4° C. Supernatants were collected and incubated with 0.5 μg of appropriate antibodies and 25 μl of protein A/G-agarose or a GST Sepharose 4B bead for 24 hours at 4° C. A protein complex was centrifuged at 1,000×g with a cold IP lysis buffer for 1 minute and washed five times. The final pellet was re-suspended in 50 μl of an SDS-sample buffer containing 5% β-mercaptoethanol and heated for 10 minutes at 100° C. A protein sample was isolated in SDS-PAGE (8 to 10%) and transferred to nitrocellulose membranes. Co-precipitated proteins were detected according to western blotting using specific antibodies.
In order to examine whether the transcriptional activity of PPARγ2 is regulated by interaction with sLZIP, interaction between sLZIP and PPARγ2 was examined. For this purpose, 293T cells were transfected with GST-sLZIP and Myc-PPARγ2. Cell lysates were obtained and GST pull-down analysis was performed using a glutathione 4B bead. A protein complex was analyzed in SDS-PAGE and then immunoblotted with specific antibodies (FIG. 2A). The 293T cells were transfected with GST-PPARγ2 and Flag-sLZIP, and identified according to GST-pull-down analysis (FIG. 2B). PPARγ2 was translated in vitro by a TNT translation system (Promega). His-sLZIP proteins were expressed in BL21 cells using an IPTG-inducement system. Purified His-sLZIP proteins were subjected to His pull-down analysis. Proteins bound to the bead were analyzed in SDS-PAGE, and then immunoblotted with anti-PPARγ2 and anti-His antibodies (FIG. 2C). GFP-PPARγ2 and Flag-sLZIP constructs were expressed in C3H10T1/2 cells, and analyzed using mouse anti-Flag and Texas Red-labeled anti-mouse antibodies under a fluorescence microscope. The nucleus was stained with DAPI (FIG. 2D).
Activation of many nuclear receptors depends on a supplement of coactivators. Therefore, a domain of sLZIP necessary for binding with PPARγ2 was examined. For this purpose, 293T cells were transfected with GST-full length sLZIP (1-354), N-terminal deletion mutant sLZIP (1-228), C-terminal deletion mutant sLZIP (229-354), CC-terminal deletion mutant sLZIP (297-354) and PPARγ2. Cell lysates were obtained and GST pull-down analysis was performed using a glutathione 4B bead. A protein complex was analyzed in SDS-PAGE, and then immunoblotted with specific antibodies (FIG. 3A). 293T cells were transfected with Flag-full length PPARγ2, full length PPARγ2, N-terminal deletion mutant PPARγ2 (1-310), C-terminal deletion mutants PPARγ2 (139-505) and GST-sLZIP. Cell lysates were obtained and GST pull-down analysis was performed. A protein complex was analyzed in SDS-PAGE, and then immunoblotted with anti-GST and anti-Flag antibodies (FIG. 3B).
For this purpose, 293T cells were transfected with GST-PPARγ2 and Flag-sLZIP and were treated or not treated with 10 nM of RZD for 24 hours. Cell lysates were obtained and GST pull-down analysis (FIG. 5A) and immunoprecipitation (FIG. 5B) were performed using a glutathione 4B bead. A protein complex was analyzed in SDS-PAGE, and immunoblotted with anti-GST and anti-Flag antibodies. GST-PARγ2 and Flag-sLZIP were expressed in the 293T cells, and the cells were treated with 10 nM of RZD according to time of day. The cell lysates were GST pull-down analyzed (FIG. 5C). 293T cells were transfected with GST-HDAC3 and Flag-sLZIP, and treated or not treated with 10 nM of RZD for 24 hours. The cell lysates were GST pull-down analyzed (FIG. 5D). Flag-sLZIP was expressed in the 293T cells, and the cells were treated with 10 nM of RZD for 24 hours. Immunoprecipitation analysis of the cell lysates was performed using anti-NCoR1 antibodies. […]

[1] = GST pull-down, transfected 293T cells

B1: N domains of sLZIP: N-terminal deletion mutant of sLZIP (1-228) (protein)
chain: MELELDAGDQDLLAFLLEESGDLGTAPDEAVRAPLDWALPLSEVPSDWEVDDLLCSLLSPPASLNILSSSNPCLVHHDHTYSLPRETVSMDLESESCRKEGTQMTPQHMEELAEQEIARLVLTDEEKSLLEKEGLILPETLPLTKTEEQILKRVRRKIRNKRSAQESRRKKKVYVGGLESRVLKYTAQNMELQNKVQLLEEQNLSLLDQLRKLQAMVIEISNKTSSSS
modifications: left off: a dimerising Fc or GST
interaction with PPARγ2 [1]: not interacted with PPARγ2

B2: sLZIP: human small leucine-zipper protein, isoform of LZIP, 354 amino acids, no transmembrane domain, GenBank FJ263669, SEQ ID NO: 1 (protein, listed as Homo sapiens)
chain: MELELDAGDQDLLAFLLEESGDLGTAPDEAVRAPLDWALPLSEVPSDWEVDDLLCSLLSPPASLNILSSSNPCLVHHDHTYSLPRETVSMDLESESCRKEGTQMTPQHMEELAEQEIARLVLTDEEKSLLEKEGLILPETLPLTKTEEQILKRVRRKIRNKRSAQESRRKKKVYVGGLESRVLKYTAQNMELQNKVQLLEEQNLSLLDQLRKLQAMVIEISNKTSSSSMYSSDTRGSLPAEHGVLSRQLRALPSEDPYQLELPALQSEVPKDSTHQWLDGSDCVLQAPGNTSCLLHYMPQAPSAEPPLEWPFPDLFSEPLCRGPILPLQANLTRKGGWLPTGSPSVILQDRYSG
interaction with PPARγ2 [1]: PPARγ2 interacted with sLZIP | interaction with PPARγ2 (GST pull-down, transfected 293T cells, listed as wild type sLZIP): interacted with PPARγ2 | direct interaction with PPARγ2 (His pull-down, purified His-sLZIP and in vitro translated PPARγ2): directly bound | interaction with PPARγ2 (ligand treated (10 nM RZD), GST pull-down or immunoprecipitation): dissociated from sLZIP; also recorded: dissociated from PPARγ2 in a time-dependent manner | interaction with PPARγ2 (no stimulation with a ligand, GST pull-down): interacted with PPARγ2

Source: patent US10456446B2, “Use of human small leucine zipper protein in osteogenesis procedure” (Korea University Research and Business Foundation, priority 2013, dated 2019)
